Data from PMC3258126.

Test system: rP20 WT (Bamboo mosaic virus satellite RNA (satBaMV, clone pBSF4))
Assay: EMSA

WT satBaMV RNA transcript
Kd: 31 nM
